The source of these data is patent US20230312702A1 (KINDRED BIOSCIENCES, published 2023).

Assay [1] addresses equine IL31 fused to human Fc (equine; human). Briefly: biolayer interferometry, biotinylated equine IL31 on the sensor, preliminary; biolayer interferometry, biotinylated equine IL31 on the sensor, preliminary; upper end of the range.
Assay [2] deals with T1, Canine IL31 with C-terminal polyHis tag (canine, biotinylated at primary amine groups (NHS-LC-Biotin) or at glycan groups (Biotin-LC-Hydrazide)).
T1 construct: the protein was collected from the supernatant of 293 or CHO-S cells; also called biotinylated canine IL31; canine IL31 (amine-conjugated-biotin); not shown: C-terminal poly-His tag
T1 chain: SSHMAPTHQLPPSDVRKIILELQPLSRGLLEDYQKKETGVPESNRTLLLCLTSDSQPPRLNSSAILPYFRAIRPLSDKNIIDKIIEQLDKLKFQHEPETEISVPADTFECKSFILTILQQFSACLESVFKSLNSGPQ
The assay can be described thus: biolayer interferometry (Octet), canine IL31 (amine-conjugated-biotin) on streptavidin tips, 2:1 fit. The procedure: (§1) The binding analysis was performed using a biosensor Octet as follows. Briefly, canine IL31 was biotinylated at primary amine groups using EZ-Link™ NHS-LC-Biotin (Thermo Scientific, Catalog No. 21336) or at glycan groups using EZ-Link™ Biotin-LC-Hydrazide (ThermoFisher Scientific, Catalog No. 21340) according to the manufacturer's instructions. The free unreacted biotin was removed from biotinylated IL31 by extensive dialysis. Biotinylated canine IL31 was captured on streptavidin sensor tips. The association of four different concentrations (400, 200, 66.6, and 33 nM) of chimeric and caninized M14 antibody and human and canine IL31 (amine-conjugated-biotin) and the association of 100 nM of caninized M14 antibody and canine IL31 (glycan-conjugated-biotin) was monitored for ninety seconds. Dissociation was monitored for 600 seconds. A buffer only blank curve was subtracted to correct for any drift. The data were fit to a 2:1 binding model using ForteBio™ data analysis software to determine the kₒₙ, koff, and the Kd. The buffer for dilutions and all binding steps was: 20 mM phosphate, 150 mM NaCl, pH 7.2.
(§2) Canine IL31 with C-terminal polyHis tag was expressed and purified from CHO-S cells. Human IL31 was obtained from Sino Biological and Streptavidin biosensors was obtained from ForteBio (Cat. #18-509).
On the technique in general: In BLI a coated tip is dipped into the sample, and binding shifts an interference pattern.

Assay [3] has as its target T1, Canine IL31 with C-terminal polyHis tag. Briefly: biolayer interferometry (Octet), canine IL31 (glycan-conjugated-biotin) on streptavidin tips, 100 nM antibody. The procedure:
as §1, §2

For another assay, the target named is T2, GST_(S98-S144).
T2 construct: also called 34.5KDa
T2 GST fusion protein: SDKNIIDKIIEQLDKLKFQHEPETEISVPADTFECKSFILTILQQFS
Briefly: immunoblot of GST-canine IL31 fusions expressed in E. coli, membrane probed with chimeric M14; anti-GST blot in Fig. 5B. The source says:
(§3) To identify the canine IL31 epitope recognized by M14, multiple GST canine IL31 fragment fusion molecules were generated and proteins were expressed intracellularly in E. coli. After the GST fusion proteins were transferred to a membrane, chimeric M14 was used to probe the membrane. A positive signal resulted when the IL31 fragment contained the epitope.
A general note: In western blotting, separated proteins are transferred to a membrane and probed.

The next assay addresses T3, GST_(A127-Q159).
T3 construct: also called 31.1KDa
T3 GST fusion protein: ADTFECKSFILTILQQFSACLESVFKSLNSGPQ
Described as above.
From the text: as §3

Assay [4] addresses canine FcRn with a poly-His tag and canine B2M heterodimer complex (canine). Briefly: SPR (Biacore T200) at pH 6.0, biotinylated FcRn/B2M immobilised, Fc as analyte. Background: SPR reads the build-up and loss of mass on a sensor chip optically.

Values joined by “and” are separate entries in the source; they are usually repeats but may differ in a detail not shown here. Identical values can stand only once.

Chain of canine FcRn with a poly-His tag and canine B2M heterodimer complex (canine) (chain, as listed by the source limits assumed, form in doubt, chain 1 of 2): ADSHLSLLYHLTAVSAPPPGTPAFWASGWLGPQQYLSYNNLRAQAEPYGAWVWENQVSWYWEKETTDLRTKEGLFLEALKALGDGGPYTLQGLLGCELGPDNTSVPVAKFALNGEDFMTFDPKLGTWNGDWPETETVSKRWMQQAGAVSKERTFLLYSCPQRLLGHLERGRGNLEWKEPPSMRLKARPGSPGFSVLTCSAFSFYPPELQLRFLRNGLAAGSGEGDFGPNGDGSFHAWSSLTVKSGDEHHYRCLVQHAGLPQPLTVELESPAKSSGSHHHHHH
Chain of canine FcRn with a poly-His tag and canine B2M heterodimer complex (canine) (b2m, as listed by the source limits assumed, form in doubt, chain 2 of 2): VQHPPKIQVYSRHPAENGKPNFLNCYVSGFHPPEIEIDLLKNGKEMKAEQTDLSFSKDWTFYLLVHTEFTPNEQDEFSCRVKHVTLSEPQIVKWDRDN
Chain of equine IL31 fused to human Fc (equine; human) (chain, as listed by the source limits assumed, form in doubt): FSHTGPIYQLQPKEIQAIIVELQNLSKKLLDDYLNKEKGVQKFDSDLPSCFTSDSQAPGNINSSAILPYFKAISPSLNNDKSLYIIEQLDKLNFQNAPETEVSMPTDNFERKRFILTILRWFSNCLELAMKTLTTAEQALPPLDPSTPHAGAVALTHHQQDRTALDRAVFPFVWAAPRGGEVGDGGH

B1: monoclonal antibody M14 (mouse antibody clone M14) (antibody, V domains shown)
VH: EVQLQESGPSLVKPSQTLSLTCSVTGDSITSGYWNWIRKFPGNKLEYMGYISYSGITDYNPSLKSRISITRDTSKNQYYLQLNSVTTEDTATYYCARYGNYGYAMDYWGQGTSVTVSS
VL: DIVLTQSPASLAVSLGQRATISCRASESVDTYGNSFMHWYQQKSGQSPKLLIYRASNLESGIPARFGGSGSRTDFTLTIDPVEADDVATYYCQQSYEDPWTFGGGTKLEIK
One may read the Kd as the concentration at which binding is half-saturated. Read a low Kd as tighter binding. As for B1, the Kd in assay [1] was below 50000 pM.

B2: caninized M14 IgG-B (antibody, V domains shown)
VH: EVQLVESGPSLVKPGGSLRLTCSVTGDSITSGYWNWIRKFPGNKLEYMGYISYSGITDYNPSLKSRITISRDTSKNQYYLQLNSVTTEDTATYYCARYGNYGYAMDYWGQGTLVTVSS
VL: DIVMTQSPASLSVSLGQRATISCRASESVDTYGNSFMHWYQQKPGQSPKLLIYRASNLESGIPARFGGSGSGTDFTLTIDPVQADDVATYYCQQSYEDPWTFGGGTKLEIKR
notes: Caninized M14 on canine IgG-B with canine light chain constant region; also called caninized M14 antibody
Usually koff stands for the first-order rate constant of dissociation. Regarding B2, the results for the Kd in assay [2] and in assay [3] were below 10 pM and below 1 pM, respectively. This molecule had a koff in assay [3] below 1e-07 s⁻¹.

B3: chimeric M14 (murine M14 VH and VL fused to canine IgG-B constant heavy chain and canine constant light chain) (antibody, V domains shown)
VH: EVQLQESGPSLVKPSQTLSLTCSVTGDSITSGYWNWIRKFPGNKLEYMGYISYSGITDYNPSLKSRISITRDTSKNQYYLQLNSVTTEDTATYYCARYGNYGYAMDYWGQGTSVTVSS
VL: DIVLTQSPASLAVSLGQRATISCRASESVDTYGNSFMHWYQQKSGQSPKLLIYRASNLESGIPARFGGSGSRTDFTLTIDPVEADDVATYYCQQSYEDPWTFGGGTKLEIKR
notes: expressed in CHO cells, Protein A purified; also called chimeric M14 antibody
B3: the binding result with GST_(S98-S144) and with GST_(A127-Q159) was “no binding” throughout.

B4: wild-type canine IgG-B Fc polypeptide (protein, not shown: small tags and cut ends)
chain: PAPEMLGGPSVFIFPPKPKDTLLIARTPEVTCVVVDLDPEDPEVQISWFVDGKQMQTAKTQPREEQFNGTYRVVSVLPIGHQDWLKGKQFTCKVNNKALPSPIERTISKARGQAHQPSVYVLPPSREELSKNTVSLTCLIKDFFPPDIDVEWQSNGQQEPESKYRTTPPQLDEDGSYFLYSKLSVDKSRWQRGDTFICAVMHEALHNHYTQESLSHSPGK
As to B4, the koff in assay [4] was 0.122 s⁻¹.

B5: variant canine IgG-B polypeptide L(23)S (protein, not shown: small tags and cut ends)
chain: PAPEMLGGPSVFIFPPKPKDTLSIARTPEVTCVVVDLDPEDPEVQISWFVDGKQMQTAKTQPREEQFNGTYRVVSVLPIGHQDWLKGKQFTCKVNNKALPSPIERTISKARGQAHQPSVYVLPPSREELSKNTVSLTCLIKDFFPPDIDVEWQSNGQQEPESKYRTTPPQLDEDGSYFLYSKLSVDKSRWQRGDTFICAVMHEALHNHYTQESLSHSPGK
For B5, in assay [4], the koff is 0.241 s⁻¹.

B6: variant canine IgG-B Fc polypeptide L(23)M (protein, not shown: small tags and cut ends)
chain: PAPEMLGGPSVFIFPPKPKDTLMIARTPEVTCVVVDLDPEDPEVQISWFVDGKQMQTAKTQPREEQFNGTYRVVSVLPIGHQDWLKGKQFTCKVNNKALPSPIERTISKARGQAHQPSVYVLPPSREELSKNTVSLTCLIKDFFPPDIDVEWQSNGQQEPESKYRTTPPQLDEDGSYFLYSKLSVDKSRWQRGDTFICAVMHEALHNHYTQESLSHSPGK
For B6, in assay [4], the koff was 0.126 s⁻¹.

B7: variant canine IgG-B Fc polypeptide L(23)F (protein, not shown: small tags and cut ends)
chain: PAPEMLGGPSVFIFPPKPKDTLFIARTPEVTCVVVDLDPEDPEVQISWFVDGKQMQTAKTQPREEQFNGTYRVVSVLPIGHQDWLKGKQFTCKVNNKALPSPIERTISKARGQAHQPSVYVLPPSREELSKNTVSLTCLIKDFFPPDIDVEWQSNGQQEPESKYRTTPPQLDEDGSYFLYSKLSVDKSRWQRGDTFICAVMHEALHNHYTQESLSHSPGK
As to B7, the koff in assay [4] was 0.0631 s⁻¹ and 0.0847 s⁻¹.

B8: variant canine IgG-B Fc polypeptide L(23)Y (protein, not shown: small tags and cut ends)
chain: PAPEMLGGPSVFIFPPKPKDTLYIARTPEVTCVVVDLDPEDPEVQISWFVDGKQMQTAKTQPREEQFNGTYRVVSVLPIGHQDWLKGKQFTCKVNNKALPSPIERTISKARGQAHQPSVYVLPPSREELSKNTVSLTCLIKDFFPPDIDVEWQSNGQQEPESKYRTTPPQLDEDGSYFLYSKLSVDKSRWQRGDTFICAVMHEALHNHYTQESLSHSPGK
In the case of B8, in assay [4], the koff came to 0.0138 s⁻¹.
